Source: patent publication US20040157227A1, “Reproductive cancer diagnosis and therapy” (priority 2001, published 2004)

Tests used:
[1] = target: growth hormone secretagogue receptor type 1a (human) (UniProt Q92847); assay: cell-based or functional assay
PC3 cells = assay: Cell proliferation assay (MTT dye method), PC3 cells; type: cell-based, human; details: 5 nM ghrelin, 3 days, 10% FCS
Method: FIG. 13: The effect of ghrelin on PC3 cells. Cell proliferation was determined using the MTT dye method. Absorbance readings for each were converted to percentage above control±SEM, indicated by error bars. * denotes P values <0.01, ** P<0.001 (one-way ANOVA with Tukey's post hoc comparisons). Data represents one of 3 identical experiments, each n=16.
(§1) PC3, MDAMB231 and Ishikawa cells were cultured in 96 well plates for 3 days at 37° C. in the presence of ghrelin (0-20 nM), in 10% FCS. Negative controls received no treatment. After aspiration of medium, cells were incubated in MTT (Sigma) solution (0.5 mg/ml) for 2h. MTT solution was aspirated and formazan salts solubilised in dimethyl sulfoxide (ICN, Costa Mesa, Calif.). A Biomeck Plate reader (Beckman, QLD, Australia) was used to measure absorbances (550/650nm).

MDA-MB 231 cells = assay: Cell proliferation assay (MTT dye method), MDA-MB 231 cells; type: cell-based, human; details: ghrelin 0-20 nM, 3 days, 10% FCS
Method: (§2) FIG. 14: The effect of ghrelin on MDA-MB231 and Ishikawa cells. Cell proliferation was determined using the MTT dye method. Absorbance readings for each were converted to percentages above control±SEM, indicated by error bars. * denotes P values <0.01, ** P<0.001 (one-way ANOVA with Tukey's post hoc comparisons).
as §1

Ishikawa cells = assay: Cell proliferation assay (MTT dye method), Ishikawa cells; type: cell-based, human; details: ghrelin 0-20 nM, 3 days, 10% FCS
Method: as §2, §1

Chain of UniProt Q92847 (Q92847 whole entry): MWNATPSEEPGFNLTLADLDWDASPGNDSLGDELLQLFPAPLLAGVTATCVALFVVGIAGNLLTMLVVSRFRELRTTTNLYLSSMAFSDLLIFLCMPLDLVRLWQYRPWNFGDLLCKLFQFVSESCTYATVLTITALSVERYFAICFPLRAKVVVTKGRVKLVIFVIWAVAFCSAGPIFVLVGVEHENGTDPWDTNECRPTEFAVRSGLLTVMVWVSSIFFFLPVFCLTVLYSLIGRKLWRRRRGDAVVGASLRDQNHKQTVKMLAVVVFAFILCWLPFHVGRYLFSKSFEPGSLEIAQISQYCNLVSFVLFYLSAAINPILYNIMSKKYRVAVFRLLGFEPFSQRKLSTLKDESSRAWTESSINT

## human ghrelin (from UniProt Q9UBU3 24-117) (peptide)
[1]
  Cell proliferation of PC3 cells (MTT dye method) (% above controls): 33

B1: ghrelin (peptide)
peptide: GSSFLSPEHQRVQQRKESKKPPAKLQPRALAGWLRPEDGGQAEGAEDELEVRFNAPFDVGIKLSGVQYQQHSQALGKFLQDILWEEAKEAPADK
notes: endogenous ligand for the GHS-R, a 28 amino acid peptide
PC3 cells
  viable cell numbers increased above controls (peak of dose-related increase): 33%
MDA-MB 231 cells
  dose related increase in cell proliferation above untreated controls (peak): 25%
Ishikawa cells
  dose related increase in cell proliferation above untreated controls (peak): 19%
